Data on four molecules can be found in patent US6991794B1, “Progenitor cell preservation factors and methods for and products of their use” (ImClone Systems Incorporated, priority 1997, dated 2006).

Series [1] deals with FLT3-transfected 3T3 cells (murine FLT3 extracellular portion/human Fms chimera and/or full-length human FLT3; not told apart). The experiment in a line: cell-based or functional assay.
In series [2] the test system is Flt3-expressing 3T3 cells. The experiment in a line: Flt3 3T3 assay during purification of Pv-FRIL. The settings on record: by itself at <1 ng/mL. The series is classed as cell-based. The protocol: To create factor-dependence for receptor-transfected 3T3 cells, growth conditions were compromised to permit only ligands to rescue cells from death. To do this, 3T3 cell lines were assayed in 96 well plates (Becton Dickinson Labware, Lincoln Park, N.J.) containing 3,000 cells in 100 μL of serum-free medium consisting of 10% AIMV (Life Technologies) and 90% DMEM. In each experiment, samples were serially diluted two-fold across rows starting at a 1:10 dilution. Viable cells were quantitated after 3-5 days by XTT (2,3-bis[Methoxy-4-nitro-5sulfophenyl]-2H-tetrazolium-5 carboxanilide inner salt) (Sigma, St. Louis, Mo.) (Roehm et al., supra). Relative activity (units/ml) and specific activity (units/mg) are defined as the reciprocal dilution at which half-maximal stimulation of cells was detected.
Each batch of PHA-LCM was generated in serum-free medium with cells from individual normal donors. To start purification, the PHA-LCM with Flt3 3T3 activity was pooled in 30 liter lots with approximately 10^7 Flt3 3T3 units. Twenty-five liters of PHA-LCM was diafiltered into 50 mM Tris-HCl, pH 7.6, 50 mM NaCl and then concentrated to 2-2.5 liters by tangential flow ultrafiltration on a 10 kDa molecular weight cutoff membrane (Pellicon, Millipore, Bedford, Mass.). A Blue-sepharose FF (Pharmacia Biotech) column (10 cm×15 cm) was equilibrated with 50 mM Tris-HCl, pH 7.4,50 mM NaCl. […]

For series [3] the following is noted: in vivo; cited from earlier work.
For series [4], the system named is human cord blood progenitors. The experiment in a line: cord blood mononuclear cell liquid culture followed by methylcellulose colony assay. The series is classed as cell-based. The settings on record: for Blast colonies / Erythroid colonies / Mix colonies / Myeloid colonies: 40 ng/ml, ± SD of triplicate. On the procedure:
To do this, umbilical cord blood from healthy donors was collected in 100 units/ml of heparin. Cord blood mononuclear cells (CB mnc) were isolated within 4 hours of collection by separation using the density separation medium sold under the trademark of FICOLL-PAQUE® (Pharmacia Biotech, Piscataway, N.J.) following manufacturer's instruction and washed in X-VIVO 10 medium (BioWhittaker, Walkersville, Md.). CB mnc were then cultured in six well tissue culture plates (Corning Inc., Corning, N.Y.) at a concentration of 200,000 cells/mL in a volume of 4 mL of X-VIVO 10 (i.e., 800,000 cells total per well). Dl-FRIL and/or recombinant E. coli Flt3-L (recFL; BioSource International, Camarillo, Calif.) were added at a concentration of 40 ng/ml at the outset (with no addition as a control). Cultures were incubated in humidified chambers without medium changes for up to 29 days.
After incubation, the cultured CB mnc cells were harvested by washing in X-VIVO 10 (i.e., harvested cells were pelleted and resuspended in X-VIVO 10) to remove the Dl-FRIL and/or recFL, and then determining viable cell number by trypan blue (Sigma) exclusion.
The progenitor capacity of the blast-like colonies was examined further for cells initially cultured for 3 weeks in either Dl-FRIL, recFL, no addition, or Dl-FRIL+recFL, and then without these regulators for an additional 6 weeks in a methylcellulose colony assay. […] Viable cells were harvested from the cells initially cultured in Dl-FRIL alone and replated in an colony assay (in methylcellulose colony assay medium) for an additional 4 weeks.

The subject of series [5] is CB CD34+ progenitor cells. The experiment in a line: ex vivo culture of CB CD34+ cells: total cell numbers and CFU assay. The series is classed as cell-based, human.
Experimental: Human umbilical cord blood (CB) samples were obtained from full term deliveries. The blood samples were diluted 1:1 in phosphate-buffered-saline (PBS) without Mg^+2/Ca^+2, supplemented with 10% fetal bovine serum (FBS). Low density mononuclear cells were collected after standard separation on Ficoll-Paque (Pharmacia Biotech, Uppsala, Sweden), and washed in RPMI with 10% FBS. Some samples were frozen in 10% DMSO, while the others were used fresh. Enrichment of CD34^+ cells was performed with mini MACS separation kit (Miltenyi Biotec, Bergisch Gladbach, Germany) according to the manufacturer's instructions. The purity of the enriched CD34^+ cells was 60-80% using one column. […]
Ex vivo Cultures Human CD34^+ enriched cells were cultured in 24 well plates (2-4×10^5 cells in 0.5 mL), containing RPMI supplemented with 10% FBS+1% BSA. […] After 3, 6, 10 and 13 days, the cells were collected, counted, analyzed by FACS, seeded in to semisolid cultures and transplanted into NOD-SCID mice.
Semisolid cultures were performed in order to detect the levels of human progenitors in ex vivo cultures, and in the marrow of transplanted mice. […] The cultures were incubated at 37° C. in a humidified atmosphere containing 5% CO2 and scored 14 days later with an inverted microscope for myeloid, erythroid, and mixed colonies by morphologic criteria. […]
Another series has as its system FLT3 receptor. The series is classed as cell-based. The settings on record: murine chimeric or full length human receptor.
In another series the test system is CB CD34+ cells. The experiment in a line: cell cycle analysis of CD34+ cells (propidium iodide). The settings on record: CD34+ cells cultured 3 days; mean ± SE.

Text for FLT3 receptor: A specific and quantitative biological assay using NIH 3T3 fibroblasts transfected either with a chimeric receptor having the extracellular portion of the murine FLT3 receptor combined with the intracellular portion of the human Fms receptor (Dosil et al., Mol. Cell. Biol. 13(10):6572-6585 1993) or with the full length human receptor (Small et al., Proc. Natl. Acad. Sci. USA 91:459-463, 1994) can be used to evaluate lectin biological activity during purification. Serial two-fold dilutions of lectin samples across rows of a 96 well plate allowed for greater than a thousand-fold range to access FLT3 3T3 biological activity.
Specifically, 3T3 cells cultured in tissue culture plates (Becton Dickinson Labware, Lincoln Park, N.J.) were removed from the plates by washing cells twice in Hank's buffered saline solution (HBSS; Gibco Laboratories, Grand Island, N.Y.). […] Proliferation and cell survival was quantitated by addition of XTT (2, 3-bis[Methoxy-4-nitro-5sulfophenyl]-2H-tetrazolium-5 carboxanilide inner salt) (Diagnostic Chemicals Ltd, Charlottetown, Prince Edward Island, Canada), which is a tetraformazan salt cleaved by actively respiring cells (Roehm et al., J. Immunol. Methods 142: 257-265, 1991). […] One unit of biological activity was defined as the reciprocal dilution at which half-maximal stimulation of cells is detected.

Molecule “Pv-FRIL (native, from Phaseolus vulgaris red kidney bean extract / purified from PHA-LCM)” returned a Specific Activity (u/mg) in the Flt3 3T3 assay, Superdex 75 step in series [1] of 244000 units/mg.

B1: recombinant hIL1-α: exogenous recombinant human interleukin 1-α (protein, UniProt P01583 113-271, looked up)
Interleukin-1 alpha: SAPFSFLSNVKYNFMRIIKYEFILNDALNQSIIRANDQYLTAAALHNLDEAVKFDMGAYKSSKDDAKITVILRISKTQLYVTAQDEDQPVLLKEMPEIPKTITGSETNLLFFWETHGTKNYFTSVAHPNLFIATKQDYWVCLAGGPPSITDFQILENQA
On to B1, for which the “stimulatory activity on Flt3 3T3 cells” value in series [2] is reported as “no stimulatory activity”.

B2: peanut agglutinin (PNA): dietary lectin from raw peanuts (protein, UniProt P02872 24-273, looked up)
Galactose-binding lectin: AETVSFNFNSFSEGNPAINFQGDVTVLSNGNIQLTNLNKVNSVGRVLYAMPVRIWSSATGNVASFLTSFSFEMKDIKDYDPADGIIFFIAPEDTQIPAGSIGGGTLGVSDTKGAGHFVGVEFDTYSNSEYNDPPTDHVGIDVNSVDSVKTVPWNSVSGAVVKVTVIYDSSTKTLSVAVTNDNGDITTIAQVVDLKAKLPERVKFGFSASGSLGGRQIHLIRSWSFTSTLITTTRRSIDNNEKKIMNMASA
B2: in series [3], the “level in the blood” value was 1000 to 5000 ng/mL.

B3: recFL: recombinant E. coli Flt3-L (FLT3 ligand) (protein, UniProt P49771 27-235, looked up)
Fms-related tyrosine kinase 3 …: TQDCSFQHSPISSDFAVKIRELSDYLLQDYPVTVASNLQDEELCGGLWRLVLAQRWMERLKTVAGSKMQGLLERVNTEIHFVTKCAFQPPPSCLRFVQTNISRLLQETSEQLVALKPWITRQNFSRCLELQCQPDSSTLPPPWSPRPLEATAPTAPQPPLLLLLLLPVGLLLLAAAWCLHWQRTRRRTPRPGEQVPPVPSPQDLLLVEH
Turning to B3, the “colonies after 21 days culture and 6 weeks methylcellulose colony assay” value in series [4] was “No colonies were detected”. Also, the “fewer mature colonies than with FRIL or FRIL plus recFL” value in series [4] (cells cultured 15 days) is 24 fold. In series [4] (day 15 of culture), this molecule returned a Blast colonies of 0, an Erythroid colonies of 0, a Mix colonies of 0 and a Myeloid colonies of 40 ± 69. In series [4] (day 21 of culture), this molecule showed a Blast colonies of 0, an Erythroid colonies of 0, a Mix colonies of 0 and a Myeloid colonies of 0. Besides, in series [4] (day 29 of culture), the Blast colonies amounted to 0, the Erythroid colonies is 0, the Mix colonies came out at 0 and the Myeloid colonies was found to be 0. Moreover, in series [5] (10 days of suspension culture, FIG. 34A), the “increase in number of total cells” value is reported as 4.5 fold. In addition, in series [5] (first factor 6 days, then cytokines), the “percentage of CFU-GEMM” value was 18.2%. The “rescue of FLT3-transfected 3T3 cells from death” value in the series with FLT3 receptor is on record as “rescue FLT3-transfected cells from death”. For the same molecule, in the series on CB CD34+ cells, the G0/G1 was found to be 68.4 ± 2.1 percentage, the SG2M is 22.2 ± 5.4 percentage and the “Sub G0/G1” value is 9.4 ± 3.3 percentage.
